The numbers were not newly measured in publication PMC8165686, which cites them from elsewhere.

In this data set the target is Spike RBD (SARS-CoV-2) (UniProt P0DTC2).

As for “ACE2 23-mer peptide 21-43 (from UniProt Q9BYF1)”, the Kd is 47 nM.

One may read the Kd as the constant that tells how readily two partners part at equilibrium.
